Source: the supplement of paper PMC10598134
± gives the standard deviation.

Experiment: collision cross section of unmodified peptide (TIMS, N2, iRT-aligned); higher = larger / more extended gas-phase ion
Summary of the method: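 Values are averages of 1–3 technical replicates of the most abundant feature for each charge state. Collision cross section was obtained from the Mason-Schamp equation after 1/K0 calibration with three reference ions and run-wise alignment to the median iRT peptide deviation. Synthetic peptide pools (iRT standard spiked 1:40) were separated on a 120-min nanoflow C18 gradient at 60 °C, analysed on a timsTOF Pro/HT (dda-PASEF, nitrogen, ~2.4 mbar) and identified with MaxQuant.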

Row | Sequence | collision cross section (charge state: 2) [Å²] | collision cross section (charge state: 3) [Å²]
1 | SDDESSQKDIK | 372.47 ± 1.1 | 449.63 ± 0.82
2 | SDSGKPYYYNSQTK | 416.14 ± 3 | 478.86 ± 16
3 | SEASSEFAKK | 351.87 ± 0.55 | 422.04 ± 3.9
4 | SEGFDTYR | 330.1 ± 0.73 | 
5 | SFDEVEGVFGRGGGR | 414.68 ± 0.96 | 509.8 ± 1.2
6 | SFEDIHQYR | 359.99 ± 0.48 | 450.82 ± 1.1
7 | SFSASGAQIVSR | 366.99 ± 0.14 | 
8 | SGATAGAAGGRGK | 361.16 ± 1.5 | 443.5 ± 4.6
9 | SGFGKFER | 339.56 ± 3 | 
10 | SGGGYGGDRGGGYGGDR | 393.08 ± 1.3 | 460.09 ± 0.81
11 | SGGGYGGDRSSGGGYSGDR |  | 476.79 ± 0.56
12 | SGGRGVSVSSAR | 352.78 ± 0.057 | 442.14 ± 3.7
13 | SGGYGGSRDYYSSR | 399.15 ± 1.2 | 474.66 ± 1.4
14 | SGKFTQQDIDEAK | 412.77 ± 2.3 | 486.03 ± 4.9
15 | SGNLTEDDKHNNAK | 412.58 ± 1.5 | 490.18 ± 3.5
16 | SGRGGNFGFGDSR | 375.82 ± 0.59 | 452.15 ± 2.9
17 | SGYSSPGSPGTPGSR | 379.95 ± 0.14 | 
18 | SHLRHAIPSAER | 388.74 ± 0.39 | 458.41 ± 2.7
19 | SISQSISGQK | 337.94 ± 0.14 | 
20 | SITHSTVGSKGEK | 404.31 ± 1.8 | 464.75 ± 3.9
21 | SKHLQEQLNELK | 411.35 ± 1.6 | 481.15 ± 4.4
22 | SKLLFSNTAAQK | 393.75 ± 6 | 444.64 ± 5

Row | Sequence | collision cross section (charge state: 2) [Å²] | collision cross section (charge state: 3) [Å²]
23 | SLEEEGAAHSGKR | 399.57 ± 1.8 | 472.78 ± 3.7
24 | SLFFGGKGAPLQR | 408.73 ± 1.1 | 446.07 ± 3.4
25 | SLGEPAAGEGSAKR | 397.19 ± 1.1 | 478.87 ± 5.9
26 | SLIGKVDGTSHVTGK | 430.43 ± 0.65 | 491.82 ± 0.22
27 | SLKLNTAEDAK | 372.65 ± 1.5 | 469.12 ± 5.3
28 | SLYASSPGGVYATR | 405.12 ± 0.66 | 482.72 ± 0.22
29 | SNEEGSEEKGPEVR | 397.33 ± 0.57 | 477.66 ± 4.4
30 | SPASDTYIVFGEAK | 403.4 ± 0.16 | 478.14 ± 0.9
31 | SPDEAYAIAKK | 371.22 ± 1.1 | 435.25 ± 4.4
32 | SPPLPEHQKIPCNSAEPK |  | 527.39 ± 1.3
33 | SPSDSGYSYETIGKTTK | 441.25 ± 2.3 | 517.54 ± 3.3
34 | SQAGASELGPFSDPR | 396.36 ± 0.66 | 
35 | SQLANTEPTK | 350.96 ± 0.68 | 
36 | SRFYSGFNSR | 370.83 ± 0.54 | 436.82 ± 3.8
37 | SRGAIISQYYNR | 400.77 ± 1.6 | 465.8 ± 0.66
38 | SRGGGGNFGPGPGSNFR |  | 460.96 ± 1.4
39 | SSDLTDRVK | 344.22 ± 0.14 | 424.95 ± 0.87
40 | SSFAYKDQNENR | 418.44 ± 1.2 | 454.53 ± 4.1
41 | SSGPGGQNVNKVNSK | 401.42 ± 1.8 | 447.95 ± 4.2
42 | SSSAGGQGSYVPLLR | 402.55 ± 0.66 | 
43 | STCTYVGAAK | 334.15 ± 0.48 | 
44 | STGLELETPSLVPVKK | 457.57 ± 5.2 | 520.54 ± 2.5

Row | Sequence | collision cross section (charge state: 2) [Å²] | collision cross section (charge state: 3) [Å²]
45 | STLEEPNLQPLQR | 408.53 ± 0.66 | 
46 | STNVTVAAARGIK | 399.07 ± 1.1 | 480.75 ± 3.1
47 | SVGGSGGGSFGDNLVTR | 413.69 ± 1.1 | 
48 | SVSSSSYR | 308.48 ± 0.73 | 
49 | SYGIPYIETSAK | 384.66 ± 0.47 | 
50 | SYHLQIVTK | 344.3 ± 0.59 | 447.43 ± 1.7
51 | SYISSQTNDTHK | 399.56 ± 0.14 | 459.19 ± 1.2
52 | SYSVGASGSSSR | 351.41 ± 0.48 | 
53 | SYVDTGGVSR | 337.16 ± 0.15 | 
54 | TAGSSGVTAGRPRPTAR |  | 538.39 ± 0.86
55 | TAIQAAGYPDK | 362.76 ± 1.1 | 
56 | TATLATLATR | 333.86 ± 0.69 | 
57 | TELLPGDRDNLAIQTR |  | 506.52 ± 0.86
58 | TEVLSPNSKVESK | 418.58 ± 2.2 | 483.46 ± 5.8
59 | TEVNSGFFYK | 366.57 ± 0.48 | 
60 | TFGKAAGPSLSHTSGGTQSK | 462.76 ± 2.3 | 520.05 ± 2.3
61 | TGGTQTDLFTCGKCK | 431.32 ± 1.2 | 479.49 ± 5.3
62 | TGPPGSTGSR | 307.73 ± 0.78 | 
63 | TGPPGSTGSRGPPGPPGR |  | 459.15 ± 0.33
64 | THLAPYSDELR | 381.48 ± 0.47 | 446.52 ± 1.7
65 | THLGEALAPLSK | 380.02 ± 0.67 | 462.22 ± 1
66 | TLDEILQEKK | 375.43 ± 1 | 432.42 ± 3.6

Row | Sequence | collision cross section (charge state: 2) [Å²] | collision cross section (charge state: 3) [Å²]
67 | TLHLSHLNRFPAR |  | 511.92 ± 1.2
68 | TLQKQSVVYGGK | 390.15 ± 1.7 | 444.64 ± 5
69 | TLTPASSPVSSPSK | 389.93 ± 0.025 | 
70 | TLTPASSPVSSPSKHGDR |  | 512.67 ± 1
71 | TPLTHALPGLSEQEGQK |  | 495.4 ± 0.86
72 | TPNLYIYSKK | 381.12 ± 1.4 | 430.18 ± 4.5
73 | TPSSFRQPFTPTSR |  | 486.75 ± 0.79
74 | TQAEGQGQGRGLGLVSAVR |  | 513.29 ± 0.77
75 | TQAYQDQKPGTSGLR | 425.76 ± 1.4 | 489.83 ± 5.9
76 | TQDQISNIKYHEEFEK | 459.39 | 550.5 ± 0.31
77 | TQSFSLQER | 347.63 ± 0.14 | 
78 | TSAVSSQANSQPPVQVSVK | 457.25 ± 1.5 | 542.62 ± 0.28
79 | TSAYGPPTR | 322.86 ± 1.6 | 
80 | TSSEASVSSSVAK | 370.17 ± 0.67 | 
81 | TSYAQHQQVR | 367.57 ± 0.48 | 444.63 ± 0.86
82 | TTEETSKPK | 341.31 ± 0.82 | 430.05 ± 3.7
83 | TTGFYSGFSEVAEKR | 454.17 ± 3.2 | 530.82 ± 1.6
84 | TTLTSDESVKDHTTAGR |  | 528.1 ± 0.21
85 | TTSYPTPRPYPKPAPSSGK |  | 522.76 ± 0.86
86 | TVQGPPGEPGR | 344.87 ± 3.1 | 
87 | TVSKVDDFLANEAK | 420.02 ± 1.7 | 500.46 ± 2.4
88 | TVTNAVVTVPAYFNDSQR | 471.11 ± 0.99 | 576.65 ± 1.1

Row | Sequence | collision cross section (charge state: 2) [Å²] | collision cross section (charge state: 3) [Å²]
89 | TYVQDILR | 349.04 ± 0.59 | 
90 | VDATADYICK | 353.92 ± 0.79 | 
91 | VDGDTQTTVEK | 367.05 ± 2.3 | 
92 | VDIDAPDVSIEGPDAKLK | 460.39 ± 2.9 | 544.84 ± 1.8
93 | VDIDVPDVNIEGPDAKLK | 470.4 ± 2.9 | 542.58 ± 2
94 | VDVEVPDVSLEGPEGKLK | 461.73 ± 2.9 | 514.03 ± 36
95 | VEELEGEITTLNHK | 424.1 ± 0.66 | 513.8 ± 3.5
96 | VELCSFSGYK | 358.19 ± 0.59 | 
97 | VEPGSLESSPGLGRGR | 425.39 ± 1.8 | 497.45 ± 0.11
98 | VEPIHAVVLPRGK | 414.74 ± 1.1 | 483.53 ± 1.8
99 | VETFSGVYK | 332.43 ± 0.59 | 
100 | VETTVTSLKTK | 379.41 ± 0.92 | 459.8 ± 3.1
101 | VFIGNLNTLVVKK | 421.66 ± 1.2 | 475.82 ± 2
102 | VFIGNLNTLVVKKK |  | 483.04 ± 2.6
103 | VFLDCCNYITELR | 421.63 ± 0.67 | 
104 | VFSIISSEKELK | 413.02 ± 1.5 | 485.92 ± 5.3
105 | VGADGTVFATR | 348.87 ± 0.14 | 
106 | VGEFSGANKEK | 374.9 ± 0.4 | 443.03 ± 4.2
107 | VGIDTPDIDIHGPEGKLK | 461.05 ± 2.5 | 538.36 ± 1.9
